The values below come from patent US20200129639A1 (Seagen, published 2020).

The assay deals with T1, CD19 (UniProt P15391 20-556, limits assumed).
T1 sequence (looked up): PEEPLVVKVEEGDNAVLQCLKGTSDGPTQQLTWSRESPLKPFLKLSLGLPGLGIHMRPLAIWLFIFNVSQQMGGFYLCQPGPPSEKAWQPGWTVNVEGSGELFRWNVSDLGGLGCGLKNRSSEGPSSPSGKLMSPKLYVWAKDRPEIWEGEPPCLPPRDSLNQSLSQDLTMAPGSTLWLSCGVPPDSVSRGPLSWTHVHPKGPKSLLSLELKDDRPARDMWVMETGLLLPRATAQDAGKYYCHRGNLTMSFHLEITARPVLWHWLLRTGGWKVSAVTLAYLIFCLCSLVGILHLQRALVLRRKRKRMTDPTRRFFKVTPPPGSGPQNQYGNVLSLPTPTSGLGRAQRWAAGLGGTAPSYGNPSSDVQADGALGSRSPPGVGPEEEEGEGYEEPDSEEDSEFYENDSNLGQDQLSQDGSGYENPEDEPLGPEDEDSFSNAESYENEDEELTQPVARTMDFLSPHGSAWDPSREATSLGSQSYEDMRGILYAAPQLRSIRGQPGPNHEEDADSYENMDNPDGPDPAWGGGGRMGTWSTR
Description: cell-based or functional assay.

B1: hBU12 co-conjugate (2 drugs on 1 ADC) (antibody, V domains shown)
VH: QVQLQESGPGLVKPSQTLSLTCTVSGGSISTSGMGVGWIRQHPGKGLEWIGHIWWDDDKRYNPALKSRVTISVDTSKNQFSLKLSSVTAADTAVYYCARMELWSYYFDYWGQGTLVTVSS
VL: EIVLTQSPATLSLSPGERATLSCSASSSVSYMHWYQQKPGQAPRLLIYDTSKLASGIPARFSGSGSGTDFTLTISSLEPEDVAVYYCFQGSVYPFTFGQGTKLEIKR
As to B1, the “Co-Conjugate IC50 (ng/mL), cytotoxicity on Granta-519 cells” value worked out at 3 ng/mL and the “Co-Conjugate IC50 (ng/mL), cytotoxicity on SU-DHL-16 cells” value is 0.2 ng/mL.
